System: TEV substrate

AcTEV protease
TEV Substrate Cleavage (%), 30 minute: 73.9%
TEV Substrate Cleavage (%), 60 minute: 91.6%
TEV Substrate Cleavage (%), 120 minute: 97.2%

Reference: patent US20160319265
